# Reference: patent US20230242601A1, “PEPTIDE USED TO PREVENT OR TREAT SYNUCLEINOPATHY” (TOHOKU UNIVERSITY, priority 2020, published 2023)
# Target: FABP3 fused with a His-tag at the N-terminus
# Assay: QCM, peptide added to immobilised FABP3
# Chain of FABP3 fused with a His-tag at the N-terminus (P05413 2-133): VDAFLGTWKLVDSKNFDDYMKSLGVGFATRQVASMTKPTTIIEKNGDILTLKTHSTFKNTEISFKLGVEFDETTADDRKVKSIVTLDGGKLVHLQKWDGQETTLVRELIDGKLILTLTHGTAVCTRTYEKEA
Kd [nM],fold stronger binding affinity against the natural SynP130-140 [fold],Binder
0.2,,EEGYQDYEPEA [SynP130-140 peptide]
0.1,2,EEGFQDYEPEA [SynP130-140 Y133F]
,2,EEGFQDFEPEA [SynP130-140 Y133F/Y136F]
